# Data taken from PMC5680807 (mAbs, 2017).
# Target: basic species of AFD (VL Asp-30 isomerized to the cyclic intermediate form)
# Assay: not given
# Chain of human complement factor D (CFD) (from UniProt P00746 26-253) (enzyme) (P00746 26-253): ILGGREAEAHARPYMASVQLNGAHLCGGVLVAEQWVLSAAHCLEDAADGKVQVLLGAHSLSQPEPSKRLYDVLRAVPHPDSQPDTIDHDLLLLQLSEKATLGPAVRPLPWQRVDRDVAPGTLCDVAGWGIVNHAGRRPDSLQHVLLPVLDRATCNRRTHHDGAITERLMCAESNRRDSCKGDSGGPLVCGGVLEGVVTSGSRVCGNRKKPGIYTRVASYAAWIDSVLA
row,fold decrease in CFD-binding affinity against AFD,Molecule
1,2 fold,human complement factor D (CFD) (from UniProt P00746 26-253) (enzyme)

# Target: human complement factor D (CFD) (Homo sapiens, UniProt P00746)
# Assay: SPR
row,Kd,Molecule
1,30 pM,"AFD.v9 (Fab, V domains shown) VH: EVQLVQSGPELKKPGASVKVSCKASGYTFTNYGMNWVRQAPGQGLEWMGWINTYTGETTYAEDFKGRFVFSLDTSVSTAYLQISSLKAEDTAVYYCEREGGVNNWGQGTLVTVSS VL: DIQVTQSPSSLSASVGDRVTITCITSTSIESDMSWYQQKPGKVPKLLISGGNTLRPGVPSRFSGSGSGTDFTLTISSLQPEDVATYYCLQSDSLPYTFGQGTKVEIK"
2,≤ 10 pM,"AFD.v7 (Fab, V domains shown) VH: EVQLVQSGPELKKPGASVKVSCKASGYTFTNYGMNWVRQAPGQGLEWMGWINTYTGETTYAEDFKGRFVFSLDTSVSTAYLQISSLKAEDTAVYYCEREGGVNNWGQGTLVTVSS VL: DIQVTQSPSSLSASVGDRVTITCITSTDIESDMNWYQQKPGKVPKLLISGGNTLRPGVPSRFSGSGSGTDFTLTISSLQPEDVATYYCLQSESLPYTFGQGTKVEIK"
3,≤ 10 pM,"AFD.v3 (Fab, V domains shown) VH: EVQLVQSGPELKKPGASVKVSCKASGYTFTNYGMNWVRQAPGQGLEWMGWINTYTGETTYADDFKGRFVFSLDTSVSTAYLQISSLKAEDTAVYYCEREGGVNNWGQGTLVTVSS VL: DIQVTQSPSSLSASVGDRVTITCITSTDIDSDMNWYQQKPGKVPKLLISGGNTLRPGVPSRFSGSGSGTDFTLTISSLQPEDVATYYCLQSDSLPYTFGQGTKVEIK"
4,16.7 ± 4.4 pM,"AFD.v8 (Fab, V domains shown) VH: EVQLVQSGPELKKPGASVKVSCKASGYTFTNYGMNWVRQAPGQGLEWMGWINTYTGETTYAEDFKGRFVFSLDTSVSTAYLQISSLKAEDTAVYYCEREGGVNNWGQGTLVTVSS VL: DIQVTQSPSSLSASVGDRVTITCITSTSIESDMNWYQQKPGKVPKLLISGGNTLRPGVPSRFSGSGSGTDFTLTISSLQPEDVATYYCLQSDSLPYTFGQGTKVEIK"
5,≤ 10 pM,"AFD.v6 (Fab, V domains shown) VH: EVQLVQSGPELKKPGASVKVSCKASGYTFTNYGMNWVRQAPGQGLEWMGWINTYTGETTYAEDFKGRFVFSLDTSVSTAYLQISSLKAEDTAVYYCEREGGVNNWGQGTLVTVSS VL: DIQVTQSPSSLSASVGDRVTITCITSTDIESDMNWYQQKPGKVPKLLISGGNTLRPGVPSRFSGSGSGTDFTLTISSLQPEDVATYYCLQSDSLPYTFGQGTKVEIK"
6,≤ 10 pM,"AFD.v2 (Fab, V domains shown) VH: EVQLVQSGPELKKPGASVKVSCKASGYTFTNYGMNWVRQAPGQGLEWMGWINTYTGETTYADDFKGRFVFSLDTSVSTAYLQISSLKAEDTAVYYCEREGGVNNWGQGTLVTVSS VL: DIQVTQSPSSLSASVGDRVTITCITSTDIEDDMNWYQQKPGKVPKLLISGGNTLRPGVPSRFSGSGSGTDFTLTISSLQPEDVATYYCLQSDSLPYTFGQGTKVEIK"
7,≤ 10 pM,"AFD.v1 (Fab, V domains shown) VH: EVQLVQSGPELKKPGASVKVSCKASGYTFTNYGMNWVRQAPGQGLEWMGWINTYTGETTYADDFKGRFVFSLDTSVSTAYLQISSLKAEDTAVYYCEREGGVNNWGQGTLVTVSS VL: DIQVTQSPSSLSASVGDRVTITCITSTSIDDDMNWYQQKPGKVPKLLISGGNTLRPGVPSRFSGSGSGTDFTLTISSLQPEDVATYYCLQSDSLPYTFGQGTKVEIK"
8,25.6 ± 6.3 pM,"AFD.v14 (Fab, V domains shown) VH: EVQLVQSGPELKKPGASVKVSCKASGYTFTNYGMNWVRQAPGQGLEWMGWINTYTGETTYAEDFKGRFVFSLDTSVSTAYLQISSLKAEDTAVYYCEREGGVSNWGQGTLVTVSS VL: DIQVTQSPSSLSASVGDRVTITCITSTSIESDMNWYQQKPGKVPKLLISGGNTLRPGVPSRFSGSGSGTDFTLTISSLQPEDVATYYCLQSDSLPYTFGQGTKVEIK"
9,280 pM,"AFD.v5 (Fab, V domains shown) VH: EVQLVQSGPELKKPGASVKVSCKASGYTFTNYGMNWVRQAPGQGLEWMGWINTYTGETTYADDFKGRFVFSLDTSVSTAYLQISSLKAEDTAVYYCEREGGVNNWGQGTLVTVSS VL: DIQVTQSPSSLSASVGDRVTITCITSTSIDSSMNWYQQKPGKVPKLLISGGNTLRPGVPSRFSGSGSGTDFTLTISSLQPEDVATYYCLQSDSLPYTFGQGTKVEIK"
10,26 pM,"AFD.v4 (Fab, V domains shown) VH: EVQLVQSGPELKKPGASVKVSCKASGYTFTNYGMNWVRQAPGQGLEWMGWINTYTGETTYADDFKGRFVFSLDTSVSTAYLQISSLKAEDTAVYYCEREGGVNNWGQGTLVTVSS VL: DIQVTQSPSSLSASVGDRVTITCITSTDIDDSMNWYQQKPGKVPKLLISGGNTLRPGVPSRFSGSGSGTDFTLTISSLQPEDVATYYCLQSDSLPYTFGQGTKVEIK"
